Laboratory results from the Human Domainome abundance scans (Beltran et al. 2025).
± gives the uncertainty stated by the source.

B1: Syntaxin-binding protein 4, residues 493 to 538; numbered along this chain, Q6ZWJ1 (parent)
chain: LDMDCLPYGWEEAYTADGIKYFINHVTQTTSWIHPVMSVLNLSRSE

Variants of: B1
Assay: abundance fitness (aPCA) (normalised: wild type 0, dead -1); higher = more abundant; growth selection in yeast, the domain comes from the species named
Details: Homo sapiens
Y14N gave an abundance fitness of -0.994 ± 0.17.
With Y14T the abundance fitness was -0.522 ± 0.1.
Y14K showed an abundance fitness of -0.907 ± 0.14.
Y14R gave an abundance fitness of -0.389 ± 0.075.
In the case of Y14P, the abundance fitness is reported as -1 ± 0.12.
Variant Y14F has an abundance fitness of -0.659 ± 0.14.
With Y14L the abundance fitness was -0.689 ± 0.083.
Work on Y14M yielded an abundance fitness of -0.614 ± 0.1.
Y14I showed an abundance fitness of -0.856 ± 0.12.
Variant Y14H has an abundance fitness of -0.575 ± 0.11.
In the case of Y14G, the abundance fitness is reported as -0.773 ± 0.087.
Y14C showed an abundance fitness of -0.586 ± 0.1.
With Y14S the abundance fitness was -0.462 ± 0.08.
With Y14D the abundance fitness was -0.976 ± 0.14.
Work on Y14W yielded an abundance fitness of -0.271 ± 0.086.
Y14E showed an abundance fitness of -0.513 ± 0.11.
Y14A showed an abundance fitness of -0.645 ± 0.09.
Work on Y14Q yielded an abundance fitness of -0.305 ± 0.1.
Y14V gave an abundance fitness of -0.411 ± 0.08.
With W32Y the abundance fitness was -0.33 ± 0.17.
Variant W32T has an abundance fitness of -0.872 ± 0.15.
For W32F, the abundance fitness was -0.558 ± 0.16.
Variant W32K has an abundance fitness of -0.576 ± 0.12.
Work on W32A yielded an abundance fitness of -0.787 ± 0.11.
For W32N, the abundance fitness was -0.342 ± 0.25.
W32L gave an abundance fitness of -0.49 ± 0.097.
With W32Q the abundance fitness was -0.86 ± 0.25.
In the case of W32D, the abundance fitness is reported as -0.539 ± 0.16.
With W32V the abundance fitness was -0.787 ± 0.12.
W32P gave an abundance fitness of -0.581 ± 0.14.
Work on W32S yielded an abundance fitness of -0.679 ± 0.11.
Work on W32R yielded an abundance fitness of -0.408 ± 0.085.
For W32G, the abundance fitness was -0.664 ± 0.089.
In the case of W32C, the abundance fitness is reported as -0.346 ± 0.12.
With W32M the abundance fitness was -0.151 ± 0.12.
With W32H the abundance fitness was -1.09 ± 0.29.
For W32E, the abundance fitness was -0.628 ± 0.12.
Work on H25R yielded an abundance fitness of 0.108 ± 0.085.
H25D showed an abundance fitness of -1.1 ± 0.22.
In the case of H25V, the abundance fitness is reported as -0.67 ± 0.11.
For H25S, the abundance fitness was -0.006 ± 0.11.
With H25P the abundance fitness was -0.236 ± 0.19.
Variant H25F has an abundance fitness of -0.514 ± 0.35.
H25K gave an abundance fitness of 0.25 ± 0.15.
Variant H25G has an abundance fitness of -0.687 ± 0.091.
For H25W, the abundance fitness was -0.916 ± 0.14.
With H25E the abundance fitness was -0.502 ± 0.13.
H25L gave an abundance fitness of -0.931 ± 0.15.
H25Y showed an abundance fitness of -0.941 ± 0.21.
H25M showed an abundance fitness of -0.94 ± 0.22.
Work on H25N yielded an abundance fitness of 0.599 ± 0.34.
For H25C, the abundance fitness was -0.824 ± 0.18.
For H25T, the abundance fitness was 0.033 ± 0.18.
H25A showed an abundance fitness of -0.927 ± 0.12.
H25I gave an abundance fitness of -0.754 ± 0.27.
Work on I33A yielded an abundance fitness of -0.248 ± 0.1.
Work on I33D yielded an abundance fitness of 0.272 ± 0.15.
Variant I33C has an abundance fitness of 0.031 ± 0.12.
I33E gave an abundance fitness of 0.511 ± 0.12.
With Y21N the abundance fitness was -0.731 ± 0.19.
In the case of Y21Q, the abundance fitness is reported as -0.544 ± 0.13.
For Y21C, the abundance fitness was -0.908 ± 0.14.
In the case of Y21G, the abundance fitness is reported as -0.873 ± 0.092.
For Y21S, the abundance fitness was -0.778 ± 0.11.
Y21A gave an abundance fitness of -0.952 ± 0.12.
Variant Y21H has an abundance fitness of -1.05 ± 0.22.
Variant Y21M has an abundance fitness of -1.03 ± 0.17.
With Y21E the abundance fitness was -0.953 ± 0.14.
Y21W showed an abundance fitness of -0.674 ± 0.099.
For Y21T, the abundance fitness was -0.93 ± 0.14.
For Y21I, the abundance fitness was -0.894 ± 0.36.
For Y21K, the abundance fitness was -0.923 ± 0.17.
Y21D showed an abundance fitness of -0.989 ± 0.18.
Y21V gave an abundance fitness of -0.998 ± 0.11.
Work on Y21F yielded an abundance fitness of -0.91 ± 0.24.
Variant Y21R has an abundance fitness of -0.962 ± 0.1.
In the case of V26Q, the abundance fitness is reported as -0.004 ± 0.2.
In the case of V26H, the abundance fitness is reported as 0.137 ± 0.14.
V26T showed an abundance fitness of 0.168 ± 0.12.
V26S gave an abundance fitness of -0.07 ± 0.098.
For V26L, the abundance fitness was -0.482 ± 0.1.
V26I gave an abundance fitness of -0.038 ± 0.094.
V26W gave an abundance fitness of -0.846 ± 0.12.
In the case of V26K, the abundance fitness is reported as -0.29 ± 0.27.
V26F gave an abundance fitness of -0.294 ± 0.15.
For V26R, the abundance fitness was -0.096 ± 0.08.
V26G showed an abundance fitness of 0.022 ± 0.08.
With V26A the abundance fitness was 0.058 ± 0.094.
Work on V26D yielded an abundance fitness of -0.087 ± 0.14.
With V26M the abundance fitness was -0.29 ± 0.11.
Variant A13Y has an abundance fitness of -0.914 ± 0.21.
With N24P the abundance fitness was -0.837 ± 0.17.
N24H gave an abundance fitness of -0.282 ± 0.14.
For N24F, the abundance fitness was -0.835 ± 0.21.
N24G gave an abundance fitness of -0.72 ± 0.092.
N24E gave an abundance fitness of -0.715 ± 0.14.
For N24C, the abundance fitness was -0.798 ± 0.16.
N24T gave an abundance fitness of -0.909 ± 0.18.
N24W gave an abundance fitness of -0.609 ± 0.13.
For N24D, the abundance fitness was -0.668 ± 0.21.
N24V gave an abundance fitness of -0.74 ± 0.11.
Work on N24Q yielded an abundance fitness of -0.923 ± 0.2.
Variant N24Y has an abundance fitness of -0.638 ± 0.23.
N24S gave an abundance fitness of -0.93 ± 0.14.
Work on N24L yielded an abundance fitness of -0.932 ± 0.16.
For N24M, the abundance fitness was -0.978 ± 0.27.
N24K showed an abundance fitness of -1.12 ± 0.28.
With N24R the abundance fitness was -0.876 ± 0.12.
For T29V, the abundance fitness was 0.766 ± 0.1.
For T29D, the abundance fitness was -0.777 ± 0.17.
For T29W, the abundance fitness was -0.556 ± 0.47.
T29Y gave an abundance fitness of -0.61 ± 0.13.
T29N showed an abundance fitness of -0.759 ± 0.14.
Work on T29H yielded an abundance fitness of -0.847 ± 0.13.
With T29I the abundance fitness was 0.226 ± 0.1.
In the case of T29L, the abundance fitness is reported as -0.969 ± 0.12.
In the case of T29Q, the abundance fitness is reported as -0.956 ± 0.39.
In the case of T29S, the abundance fitness is reported as -0.475 ± 0.098.
For T29C, the abundance fitness was 0.271 ± 0.12.
Work on T29M yielded an abundance fitness of -0.789 ± 0.19.
Work on T29F yielded an abundance fitness of -0.674 ± 0.12.
Work on T29G yielded an abundance fitness of -0.777 ± 0.24.
T29K gave an abundance fitness of -0.759 ± 0.46.
Work on T29A yielded an abundance fitness of -0.486 ± 0.15.
In the case of T29R, the abundance fitness is reported as -0.594 ± 0.14.
With K20R the abundance fitness was -0.198 ± 0.075.
K20D gave an abundance fitness of -0.743 ± 0.14.
Work on K20S yielded an abundance fitness of -0.836 ± 0.1.
K20T showed an abundance fitness of -0.767 ± 0.13.
Variant K20H has an abundance fitness of -0.444 ± 0.18.
In the case of K20C, the abundance fitness is reported as -0.753 ± 0.1.
Work on K20P yielded an abundance fitness of -0.141 ± 0.094.
Work on K20M yielded an abundance fitness of -0.848 ± 0.12.
For K20V, the abundance fitness was -0.717 ± 0.089.
Work on K20I yielded an abundance fitness of -0.853 ± 0.19.
With K20A the abundance fitness was -0.699 ± 0.089.
In the case of K20Y, the abundance fitness is reported as -0.783 ± 0.15.
Work on K20G yielded an abundance fitness of -0.857 ± 0.087.
With K20Q the abundance fitness was -0.897 ± 0.13.
With K20F the abundance fitness was -0.919 ± 0.17.
K20L showed an abundance fitness of -0.794 ± 0.094.
With K20W the abundance fitness was -0.686 ± 0.1.
In the case of K20N, the abundance fitness is reported as -0.54 ± 0.19.
Variant T15R has an abundance fitness of -0.698 ± 0.077.
Variant T15C has an abundance fitness of -1 ± 0.14.
T15I gave an abundance fitness of -0.772 ± 0.1.
T15E gave an abundance fitness of -0.859 ± 0.16.
In the case of T15H, the abundance fitness is reported as -0.881 ± 0.16.
For T15N, the abundance fitness was -0.806 ± 0.14.
In the case of T15P, the abundance fitness is reported as -0.531 ± 0.093.
In the case of T15A, the abundance fitness is reported as -0.801 ± 0.1.
In the case of T15G, the abundance fitness is reported as -0.561 ± 0.082.
T15F showed an abundance fitness of -0.883 ± 0.14.
Variant T15S has an abundance fitness of -0.672 ± 0.085.
T15Q showed an abundance fitness of -0.706 ± 0.1.
T15K showed an abundance fitness of -0.938 ± 0.13.
Variant T15D has an abundance fitness of -0.509 ± 0.13.
In the case of T15W, the abundance fitness is reported as -0.814 ± 0.096.
T15V gave an abundance fitness of -0.862 ± 0.094.
Variant T15Y has an abundance fitness of -0.65 ± 0.13.
S31G showed an abundance fitness of -0.454 ± 0.1.
Variant S31A has an abundance fitness of -0.799 ± 0.12.
Variant S31L has an abundance fitness of -0.788 ± 0.11.
Work on S31M yielded an abundance fitness of -0.989 ± 0.14.
With S31W the abundance fitness was -0.922 ± 0.14.
In the case of S31E, the abundance fitness is reported as -0.724 ± 0.16.
S31I gave an abundance fitness of -0.633 ± 0.16.
